Laboratory results published in publication PMC3621463 (Nature Communications, 2012).

Molecular target: HDM2 (used for surface plasmon resonance and the competitive binding assay) (UniProt Q00987 1-491)
Assay: SPR

HDM2 (used for surface plasmon resonance and the competitive binding assay), sequence (Q00987 whole entry): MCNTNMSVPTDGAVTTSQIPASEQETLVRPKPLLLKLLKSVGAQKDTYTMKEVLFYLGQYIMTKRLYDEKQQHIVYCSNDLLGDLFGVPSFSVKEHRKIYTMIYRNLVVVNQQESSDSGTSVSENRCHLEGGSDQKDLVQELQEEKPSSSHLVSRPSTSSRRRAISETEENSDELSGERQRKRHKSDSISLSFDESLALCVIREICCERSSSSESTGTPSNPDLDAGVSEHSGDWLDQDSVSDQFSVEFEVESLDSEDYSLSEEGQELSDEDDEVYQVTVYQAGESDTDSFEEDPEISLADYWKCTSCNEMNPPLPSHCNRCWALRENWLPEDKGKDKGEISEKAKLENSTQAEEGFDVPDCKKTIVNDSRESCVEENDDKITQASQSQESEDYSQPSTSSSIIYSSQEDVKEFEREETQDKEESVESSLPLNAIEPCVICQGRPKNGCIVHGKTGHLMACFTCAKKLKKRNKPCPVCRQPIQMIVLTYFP

LWKLLPEDDVLSPLPSQAM (isoaspartate at 29 and 30) [p53 peptide (amino acids 22-40) N29,30IsoD]
Kd: 694 µM
